Assay results published in the MegaScale stability set (Tsuboyama et al. 2023).

B1: EHEE_rd2_0191 (parent)
chain: TTEYTFTDDEEARRAIEELKKRGLTFRYEKHGTTWRVRVD

Variants of: B1
Experiment: folding stability dG (cDNA display proteolysis); higher = more stable
Conditions: PBS, room temperature

Folding stability dG [kcal/mol] of substitutions, site by site:
R36: E 1.34, S 1.67, I 3.33, Q 1.54, Y 3.28, G -0.707, V 3.08, H 2.44, A 1.19, W 2.7, F 3.02, D 0.362, N 1.43, C 2.39, T 2.57, M 2.08, K 2.35, L 2.71
K30: N 0.931, Y 1.21, W 0.819, M 1.43, V 1.82, S 0.569, R 1.99, A 0.56, L 1.54, E -0.015, H 1.51, I 1.86, F 1.22, Q 1.54, T 0.892
T34: L 2.33, A 1.48, D 1.03, K 1.48, Q 1.78, M 2.08, E 2.07, W 1.75, I 2.48, N 1.48, Y 2.05, S 1.53, C 2.51, V 2.42, G 1.56, H 1.74, F 2.15, R 1.54
E18: V 1.96, K 1.74, R 1.7, T 1.84, W 2.69, I 2.15, L 2.08, S 1.99, A 2.01, D 2.03, H 1.86, M 2.11, Q 1.97, N 1.9, Y 2.29, G 1.74, F 2.12
R22: L 2.25, W 1.78, N 1.69, Q 2.1, K 2.02, F 1.55, S 1.93, V 1.23, I 1.52, G 1.28, A 2.1, M 2.19, T 1.56, Y 1.55, E 1.35, H 1.64, D 1.03
L19: I 1.55, F 2.64, M 1.73, Y 1.58, V 0.238, W 1.94, A 0.832
E17: A 2.25, L 2.11, K 2, D 1.95, M 2.1, F 1.97, S 1.97, W 2.07, V 1.83, I 2.01, Q 2.04, R 2.23, H 1.88, N 2.02, G 1.71, Y 2.02, T 1.89
W35: L 0.943, T 1.49, C 1.77, M 0.84, R -0.576, S 0.309, N -0.839, Y 1.21, A -0.575, F 0.889, I 2.15, H 1.59, V 1.44
H31: M 2.18, Y 2.04, F 2.15, S 2.1, G 0.625, D 2.39, L 2.29, W 1.89, Q 2.21, R 1.99, N 2.21, A 1.75, T 2.29, V 2.56, I 2.81, E 2.24, K 2.06
V37: C 0.419
T25: L 1.97, S 2.29, Q 2.01, G 1.49, N 2.12, V 2.08, M 1.95, P 1.84, R 2.27, A 1.95, F 2.15, E 1.58, I 2.14, W 2.28, H 2.25, K 2.25, D 1.46, Y 2.07
R27: L 1.74, G 1.37, M 2.03, A 2.1, H 2.39, I 2.29, D 1.62, Q 2.25, S 2.73, T 3.02, K 2, F 2.29, Y 2.42, W 2.77, V 2.51, E 2.02, N 1.91
I16: F 1.37, Y -0.65, T -0.106, W 0.024, L 1.64, N 0.255, C 1.58, M 2.23, G -0.247, V 1.12
K20: E 1.86, Q 2, G 1.41, F 2.02, N 1.54, S 1.81, V 2.07, R 2.27, W 1.75, H 1.71, I 2.42, M 2.15, T 2.12, D 1.15, C 2.56, L 2.15, Y 1.99, A 1.81
F26: T 0.447, V 2.73, I 2.04, L 1.61, A 0.99, P 1.41, M 0.795, W 0.681, Y 1.73, H 0.04
G32: F 0.367, A 0.777, T -0.068, I -0.154, K 0.641, M 0.592, H 0.696, E 1.35, S 0.389, L 0.796, D 1.34, V -0.186, N 1.1, R 0.119, Y 0.194, Q 0.889, W -0.3
E29: A 1.75, D 1.7, Q 1.75, M 1.94, H 1.83, L 1.71, I 2.13, C 2.56, N 1.38, S 2.12, T 2.21, R 1.77, V 2.07, G 1.04, F 2.35, Y 2.44, W 3.04, K 1.72
K21: V 1.66, N 1.78, S 1.94, A 2.12, M 1.9, C 2.13, I 1.79, D 1.32, E 1.71, W 1.37, L 1.94, H 1.58, T 1.82, Y 1.49, R 2.35, G 1.45, Q 1.81, F 1.63
Y28: T 1.78, M 1.86, S 1.34, W 2.2, I 2.95, R -0.634, C 2.52, A 2.4, L 2.15, F 2.06, V 3.23, E 0.447, G 0.032, D -0.987, Q 0.764, H 0.592, K 0.466
L24: G 0.321, H 1.46, N 0.838, Q 1.27, I 2.16, T 1.12, V 2.14, A 2, E 1.1, D 0.718, M 1.91, Y 2.15, S 1.18, R 1.42, F 2.08, K 1.55, W 1.65
T33: H 2.01, Q 2.03, N 2.55, D 2.54, S 2.19, E 2.14, A 1.93, R 1.8, G 2.46, M 1.9, I 1.84, V 1.71, W 1.13, K 2.01, P 1.79, L 1.91, F 1.9, Y 1.7
G23: Y 0.547, D 0.517, C 1.31, M 0.906, Q 0.972, T -0.314, L 0.596, H 1.26, A 0.759, E 0.428, W 0.206, K 1.21, N 1.4, S 0.756, F 0.765, R 1.18
